Laboratory results taken from EP4751739A1, “ANTIBODY-DRUG CONJUGATE TARGETING C-MET AND MEDICAL USE THEREOF” (Jiangsu Hengrui Pharmaceuticals Co., Ltd., priority 2023, dated 2025).

What was measured:
[1] = tested on: human gastric cancer MKN-45 nude mouse subcutaneous xenograft tumor model; assay: In vivo efficacy, MKN-45 xenograft tumor model; design: species or system Balb/c Nude mice; conditions: 3 mg/kg single i.p. (D0)
Procedure: Female Balb/c Nude mice were subcutaneously inoculated with 5 × 10^6 MKN-45 cells to establish a subcutaneous tumor model. […] Each group was given a single (D0) intraperitoneal injection. The body weight and tumor size of the animals were measured twice weekly during the experiment.

[2] = tested on: human lung cancer EBC-1 cells; assay: Endocytosis by c-Met-positive cells (flow cytometry); format: cell-based; conditions: 20 nM
Procedure: Teli-VcMMAE (namely ABBV-399, in which the toxin is MMAE) and its naked antibody ABT-700 were prepared in-house based on the telisotuzumab vedotin structure disclosed on page 319 of WHO Drug Information, Vol. 30, No. 2, 2016.
The cell density was adjusted to 2 × 10^6 cells/mL using a FACS buffer (prepared with PBS 1×, pH 7.2, and 2% FBS). The suspension was added to a 96-well round-bottom plate at 50 µL/well. Groups were set as follows: endocytosis for 0 h, endocytosis for 0.5 h, endocytosis for 2 h, endocytosis for 4 h, and endocytosis for 24 h. A 40 nM (2×) dilution of an antibody or antibody-drug conjugate was added at 50 µL/well. […] A final concentration of 20 nM was achieved. The plate was incubated at 4 °C for 60 min. After the incubation, the plate was centrifuged at 400 g for 5 min, the supernatant was discarded, and the plate was washed twice with 200 µL of FACS Buffer per well. The cells were resuspended in a culture medium and subjected to 0 h, 0.5 h, 2 h, 4 h, or 24 h of endocytosis in an incubator (37 °C, 5% CO2). After different endocytosis periods, the cells were digested with TrypLE™ Express Enzyme to form a single cell suspension. After 1 wash with 200 µL of FACS buffer, a secondary antibody (Alexa Fluor® 647 AffiniPure Mouse Anti-Human IgG(H+L), 1:500, Jackson, 209-605-008) diluted in FACS buffer was added, and the plate was incubated in a dark place at 4 °C for 30 min. The plate was centrifuged at 400 g for 5 min, the supernatant was discarded, and the plate was washed twice with 200 µL of FACS buffer per well. The cells were resuspended in 50 µL of FACS buffer, and 50 µL of 4% paraformaldehyde was then added for fixation. After thorough mixing, the plate was left to stand at 4 °C in a dark place. After all samples were collected, Alexa Fluor® 647 fluorescence signals were detected using a flow cytometer. Data were analyzed using Flowjo software, and gMFI values were calculated. Endocytosis ratio = (0-h endocytosis gMFI - n-h endocytosis gMFI)/0-h endocytosis gMFI. Table 4. Evaluation of endocytosis performance

B1: Teli-VcMMAE: ABBV-399, in which the toxin is MMAE; prepared in-house based on the telisotuzumab vedotin structure (conjugate, chains of the INN, looked up)
VH: QVQLVQSGAEVKKPGASVKVSCKASGYIFTAYTMHWVRQAPGQGLEWMGWIKPNNGLANYAQKFQGRVTMTRDTSISTAYMELSRLRSDDTAVYYCARSEITTEFDYWGQGTLVTVSS
VL: DIVMTQSPDSLAVSLGERATINCKSSESVDSYANSFLHWYQQKPGQPPKLLIYRASTRESGVPDRFSGSGSGTDFTLTISSLQAEDVAVYYCQQSKEDPLTFGGGTKVEIK
modifications: vc-MMAE payload
notes: ABBV-399, in which the toxin is MMAE; prepared in-house based on the telisotuzumab vedotin structure
[1]; D0 (baseline at grouping)
  Mean tumor volume (mm^3, mean ± SEM) D0: 117± 3 mm^3
[1]; D23
  Mean tumor volume (mm^3, mean ± SEM) D23: 1354 ± 327 mm^3
  TGI (%) D23: 40.28%
[2]; 0 h
  Endocytosis ratio%: 0.000%
[2]; 0.5 h
  Endocytosis ratio%: 4.361%
[2]; 2 h
  Endocytosis ratio%: 31.734%
[2]; 24 h
  Endocytosis ratio%: 97.339%
